# Laboratory results as given in patent US20030004314A1 (published 2003).
# Numbering of substitutions follows the chain as printed. Numbers in names are those of the source.
# T1: T cell IL-4 receptor (IL-4Rα/IL-2Rγ) (human, UniProt P24394 26-825; P31785 23-369)
# T1 sequence (looked up) 1: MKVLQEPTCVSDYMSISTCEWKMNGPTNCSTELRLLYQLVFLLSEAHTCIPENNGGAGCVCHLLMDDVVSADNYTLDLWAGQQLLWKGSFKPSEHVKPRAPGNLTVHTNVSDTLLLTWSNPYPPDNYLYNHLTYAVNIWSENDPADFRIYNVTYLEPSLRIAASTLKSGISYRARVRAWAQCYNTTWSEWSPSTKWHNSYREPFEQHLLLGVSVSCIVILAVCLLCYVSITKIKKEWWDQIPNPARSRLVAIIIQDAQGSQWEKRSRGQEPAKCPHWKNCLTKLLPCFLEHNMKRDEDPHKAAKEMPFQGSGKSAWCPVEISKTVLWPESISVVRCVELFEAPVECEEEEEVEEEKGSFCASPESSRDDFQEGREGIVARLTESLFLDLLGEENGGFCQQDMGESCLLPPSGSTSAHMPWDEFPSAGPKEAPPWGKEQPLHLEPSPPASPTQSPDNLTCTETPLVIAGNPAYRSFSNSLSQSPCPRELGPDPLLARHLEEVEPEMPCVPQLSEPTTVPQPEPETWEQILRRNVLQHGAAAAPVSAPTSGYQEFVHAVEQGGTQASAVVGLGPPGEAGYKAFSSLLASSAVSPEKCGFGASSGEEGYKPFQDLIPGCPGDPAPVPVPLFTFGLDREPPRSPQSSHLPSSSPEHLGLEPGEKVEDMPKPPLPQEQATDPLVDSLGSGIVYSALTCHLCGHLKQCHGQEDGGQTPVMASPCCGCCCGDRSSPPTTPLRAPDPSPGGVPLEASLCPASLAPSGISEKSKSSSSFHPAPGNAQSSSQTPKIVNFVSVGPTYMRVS
# T1 sequence (looked up) 2: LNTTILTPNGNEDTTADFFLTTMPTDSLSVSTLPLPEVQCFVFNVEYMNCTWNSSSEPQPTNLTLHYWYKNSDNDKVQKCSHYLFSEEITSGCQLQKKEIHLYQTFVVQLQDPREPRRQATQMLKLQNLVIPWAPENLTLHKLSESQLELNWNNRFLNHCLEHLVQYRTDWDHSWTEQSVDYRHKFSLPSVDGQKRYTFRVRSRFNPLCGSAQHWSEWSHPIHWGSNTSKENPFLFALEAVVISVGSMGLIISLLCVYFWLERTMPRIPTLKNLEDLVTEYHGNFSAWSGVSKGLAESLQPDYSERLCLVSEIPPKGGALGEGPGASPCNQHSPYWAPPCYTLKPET
# B1: IL-4 mutein R121E (ligand)
# chain: HKCDITLQEIIKTLNSLTEQKTLCTELTVTDIFAASKNTTEKETFCRAATVLRQFYSHHEKDTRCLGATAQQFHRHKQLIRFLKRLDRNLWGLAGLNSCPVKEANQSTLENFLERLKTIMEEKYSKCSS
# B2: IL-4 mutein R121F (ligand)
# chain: B1 chain with E121F
# B3: IL-4 mutein R121H (ligand)
# chain: B1 chain with E121H
# B4: IL-4 mutein R121I (ligand)
# chain: B1 chain with E121I
# B5: IL-4 mutein R121K (ligand)
# chain: B1 chain with E121K
# B6: IL-4 mutein R121N (ligand)
# chain: B1 chain with E121N
# B7: IL-4 mutein R121P (ligand)
# chain: B1 chain with E121P
# B8: IL-4 mutein R121T (ligand)
# chain: B1 chain with E121T
# B9: IL-4 mutein R121W (ligand)
# chain: B1 chain with E121W
# B10: IL-4 mutein T13D/R121E (ligand)
# chain: B1 chain with T13D
# B11: IL-4 mutein R121A (ligand)
# chain: B1 chain with E121A
# B12: IL-4 mutein Y124A (ligand)
# chain: B1 chain with E121R, Y124A
# B13: IL-4 mutein Y124Q (ligand)
# chain: B1 chain with E121R, Y124Q
# B14: IL-4 mutein Y124R (ligand)
# chain: B1 chain with E121R, Y124R
# B15: IL-4 mutein Y124S (ligand)
# chain: B1 chain with E121R, Y124S
# B16: IL-4 mutein Y124T (ligand)
# chain: B1 chain with E121R, Y124T
# B17: IL-4 mutein Y124A/S125A (ligand)
# chain: B1 chain with E121R, Y124A, S125A
# B18: IL-4 mutein R121T/E122F/Y124Q (ligand)
# chain: B1 chain with E121T, E122F, Y124Q
# B19: IL-4 mutein R121D (ligand)
# chain: B1 chain with E121D
# Tests used:
# Test in all cases: cell-based or functional assay
# [1] = molecular target: T2, HUVEC IL-4 receptor (IL-4Rα/γ-like receptor component) (human, UniProt P24394 26-825)
# [2] = molecular target: T1, T cell IL-4 receptor (IL-4Rα/IL-2Rγ)
# [3] = molecular target: T2, HUVEC IL-4 receptor (IL-4Rα/γ-like …); remark: listed apart in the source
"IC50, HUVEC antagonist assay (IL-4-induced IL-6 secretion) [1]","1° T cell proliferation, EC50, pM [2]","HUVEC, IL-6 secretion, EC50, pM [3]","antagonist potency relative to R121E, HUVEC antagonist assay [1]",Binder
~60 nM,65 pM,–,–,B1
–,150 pM,20 pM,–,B2
–,150 pM,40 pM,–,B3
–,100 pM,40 pM,–,B4
–,150 pM,100 pM,–,B5
–,150 pM,35 pM,–,B6
–,100 pM,650 pM,–,B7
–,150 pM,20 pM,–,B8
–,150 pM,80 pM,–,B9
~2.2 nM,100 pM,–,~27 fold,B10
–,150 pM,20 pM,–,B11
–,150 pM,65 pM,–,B12
–,250 pM,200 pM,–,B13
–,750 pM,250 pM,–,B14
–,425 pM,350 pM,–,B15
–,300 pM,350 pM,–,B16
–,600 pM,200 pM,–,B17
–,15 pM,–,–,B18
–,100 pM,–,–,B19
